Measurements as given in patent publication US11667697.

How the values were obtained:
Test in all cases: lysate ELISA
[1] = molecular target: CPXV ortholog of H5 (cowpox virus)
[2] = molecular target: MPXV ortholog of H5 (monkeypox virus)
[3] = molecular target: VACV H5 protein (vaccinia virus)

B1: VACV-308 (antibody, V domains shown)
VH: QVQLVQSGAEVKKPGSSVKVSCKGSGDSFRSYAISWVRQAPGQGLEWMGGIIPRFGTTNYAQKFQDRVTITADKSTTTAYMELRSLKCEDTGVYYCARPQSAYDFGPFDHWGQGTLVTVSS
VL: SYELTQPPSLSVAPGKTARITCGGDNIGSKGVHWYQQKPGQAPVVVISYDSDRPSGIPERFSGSNSGDTATLTISRVEAGDEADYYCHVWHTTTDHYVFGTGTKVTVL
Work on B1 yielded an EC50 [1] of 2 ng/mL, an EC50 [2] of 3 ng/mL and an EC50 [3] of 6 ng/mL.
